Laboratory results reported in the RNAGym collection of RNA variant scans (doi:10.1073/pnas.2313332121).

B1: TPR t1 (parent)
chain: GACCAAUCUGCCCUCAGAGCUCGAGAACAUCUUCGGAUGCAGAGGAGGCAGGCUUCGGUGGCGCGAUAGCGCCAACGUCCUCAACCUCCAAUGCAUCCCACCACAUGAUGAUGCCUGAAGAGCCUUGGUUUUUUG

Variants of: B1
Assay: polymerase ribozyme fitness, log enrichment relative to wild type (log ratio); higher = more active; in vitro selection for triplet polymerase activity
Method in brief: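 PCR was used to build mutant libraries for each subunit of a heterodimeric triplet polymerase ribozyme, which were then transcribed. A single in vitro selection round, in triplicate, used a frozen incubation at −7 °C and recovered extended constructs by gel excision, streptavidin beads and RT-PCR. Fitness is the logarithm of genotype enrichment relative to wild-type enrichment, averaged over replicates with inverse-variance weights. The logarithm is base 2, and after Illumina sequencing only genotypes with ≥10 input reads and ≥1 read per output were kept.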

| Variant | polymerase ribozyme fitness (log ratio) |
| --- | --- |
| G63U C82A C104U A108C | -6.05 |
| G61U A84G U96G | -0.74 |
| G61U C82A | -0.605 |
| C62U C123U | 1.47 |
| C62G C102A C115A | -2.67 |
| C62A G110C G127U | -5.37 |
| C62U C89G G93A C101U G113C C114U G127C | -4.42 |
| C62U G93A | -0.42 |
| G61C C80G G117C | -7.35 |
| G63U A90U | -3.53 |
| G63A G120A | -0.19 |
| C62U C98A A103C U129C | -6.12 |
| C62A G110A | -2.12 |
| C62U G107C | -5.77 |
| G61C C114U | -4 |
| G61U A83U A90G | 0.371 |
| G63A C102U C114A | -6.03 |
| C64A A121C | -4.57 |
| C64A A66C U109C | -6.74 |
| C62A A105G | -4.17 |
| C62A U81G | -5.64 |

| Variant | polymerase ribozyme fitness (log ratio) |
| --- | --- |
| G61U G63A U96A A103G A111U G113A U132C | -6.45 |
| G61U U106A U116C | -0.163 |
| C64U C99U | -2.88 |
| G61U U81A | -0.596 |
| G61U A83G U112C | 1.59 |
| G63C U78C A105C | -3.52 |
| C62G U112G | -1.83 |
| C64U C82U C89A | -1.79 |
| C62A G77U C115G | -2.95 |
| C62U U125G G127C | -1.39 |
| G63U G113A G128U | -4.06 |
| G63C C89U | -1.31 |
| C64U C88U G122A | -0.852 |
| G63A U116C | -0.908 |
| G63A C73U U130G | -0.938 |
| C64U C73A U131A | -0.288 |
| G63C U78A G110U | -3.31 |
| G63U A84C U130A | -2.23 |
| C64A U78C U81G G120A | -6.42 |
| G63C C101U | -1.5 |
| C62A C101A A111C | -1.51 |

| Variant | polymerase ribozyme fitness (log ratio) |
| --- | --- |
| G63C G128C | -3.04 |
| C62A U133A | -1.52 |
| G63U U92A | -5.39 |
| G63A A74U C102U A111U U129G | -5.79 |
| G63A U133A | -0.918 |
| C62U A83G | -1.18 |
| C64U C72U A90C C104A A111G G127A G135A | -4.26 |
| G61C U126A | -2.98 |
| G63C G65A G117C A119G A121C | -7.02 |
| G61C C104U A111C | -1.59 |
| G61U C97A C123A | -4.17 |
| G63U G93U | -1.76 |
| C62U U78A C89U G117A | -2.6 |
| G63C U116C | -1.29 |
| C62A C82U | -0.465 |
| G61U C73U A121G | 0.407 |
| G63C C72U G107A C124U | -6.17 |
| C62U C76G A83U C89G U116C U130G | -2.99 |
| C62G C79U | -1.14 |
| C64U A118U | 0.459 |
| G63A U109C | -2.75 |

| Variant | polymerase ribozyme fitness (log ratio) |
| --- | --- |
| C64G C102U C124U | -6.08 |
| C62A A84U | -1.52 |
| C64U C114U | -1.47 |
| C64U C114A | -1.4 |
| C62A G107A | -5.05 |
| C62A U87G U106G | -2.77 |
| G61C U81A C124G U132C | -2.36 |
| G63A G110C C115G G120U | -7.28 |
| G63C U130C | -1.1 |
| G63A G113U | -2.82 |
| G63A G113A | -1.68 |
| C62A U116G G120C U129A | -3.57 |
| G61C C82U | -1.83 |
| G63A C89U | -1.62 |
| G63A C89G | -2.7 |
| G61U U81C C86G G113U A119U | -6.31 |
| C62U C73A G113A | -1.96 |
| C64U A95G | -1.52 |
| G61U A105U | -1.36 |
| G61U A105C | -1.99 |
